Test: soluble on expression in E. coli; label from the status in PepcDB or PDB records

Row | Sequence | soluble on expression in E. coli
1 | MKRIPYALVDVFAPAPGAGNRVAVVLDARGMSPEEMQAVAQSLGAAEAAFLLERTGAALSVRFFAPGGEVEFSGHAAVAVGLTAARTGLVPEGTTRLYLHTPTEVLPVELVLEAGEPRKAWVRGPAPRFRDLPPYRALREVLEALGSDERYLHRGLPYGVAFTGLWSLFVPLIAPGVVDALEPEMERLKALCFRLDVATVHAYAPMGPRSFYARDFAPLLGIPEDPVTGSANAALGALLARAGVVPRREGKVLLTVYQGHHLGNPGVVEVQVEYSPTGEPYSVQIGGEAVIVQTGEV | soluble
2 | MKRLSLREAWPYLKDLQQDPLAVLLEWGRAHPRLFLPLPRFPLALIFDPEGVEGALLAEGTTKATFQYRALSRLTGRGLLTDWGKSWKEARKALKDPFLPKSVRGYREAMEEEAWAFFGEWRGEERDLDHEMLALSLRLLGRALFGKPLSPSLAEHALKALDRIMAQTRSPLALLDLAAEARFRKDRGALYREAEALIVHPPLSHLPRERALSEAVTLLVAGHETVASALTWSFLLLSHRPDWQKRVAESEEAALAAFQEALRLYPPAWILTRRLERPLLLGEDRLPQGTTLVLSPYVTQRLYFPEGEAFQPERFLAERGTPSGRYFPFGLGQRLCLGRDFALLEGPIVLRAFFRRFRLDPLPFPRVLAQVTLRPEGGLPARPREGVRA | soluble
3 | MKRLTIEMLPTLIGNEKLLVDCLFILFCTLKTKSLPPIRVLVRTNQSNLILDTLYEKLSKAVDKKLIFVASPEKPFDVIITDIFSEVSVKSTVPTYYVDFSASIGELAQSLENLNTQIVTKQSPRHF | not soluble
4 | MKRTIQETPGPSSTTVPPPKKLNSQRNGSNLEPGSIYFTPIGGISVPRQESESSRSLDEILADIRPINSLHFSFMLDFEFLIGSYPPSLREYPITLVVGAPDAPDLLKCTKNQKLVTVVGASLPIPFGTHHTKMSILEDEDGRFHVIVSTANLVPDDWEFKTQQFYYNFGVKIASGTVPRSDFQDDLLEYLSMYRNQLDTWKQLLQKVDFSQISDRLIFSTPGYHTDPPTQRPGHPRLFRILSEKFPFDASYEHTERCTFVAQCSSIGSLGSAPINWFRGQFLQSLEGANPSPKQKPAKMYLVFPSVEDVRTSCQGYAGGCSVPYRNSVHARQKWLQGNMCKWRSNAKRRTNAVPHCKTYVKYDKKVAIWQLLTSANLSKAAWGEVSFNKSKNVEQLMIRSWEMGVLITDPSRFNIPFDYPLVPYSATDEPFVTDKKHEKPDILGCIWTPP | not soluble
5 | MKSALSDLAFFGGPAAFDQPLLVGRPNRIDRARLYERLDRALDSQWLSNGGPLVREFEERVAGLAGVRHAVATCNATAGLQLLAHAAGLTGEVIMPSMTFAATPHALRWIGLTPVFADIDPDTGNLDPDQVAAAVTPRTSAVVGVHLWGRPCAADQLRKVADEHGLRLYFDAAHALGCAVDGRPAGSLGDAEVFSFHATKAVNAFEGGAVVTDDADLAARIRALHNFGFDLPGGSPAGGTNAKMSEAAAAMGLTSLDAFPEVIDRNRRNHAAYREHLADLPGVLVADHDRHGLNNHQYVIVEIDEATTGIHRDLVMEVLKAEGVHTRAYFSPGCHELEPYRGQPHAPLPHTERLAARVLSLPTGTAIGDDDIRRVADLLRLCATRGRELTARHRDTAPAPLAAPQTSTPTIGRSRGLEHHHHHH | soluble
6 | MKSARKNKNIIIDQNEFGILSLIKEGLLGTCTHLMNEKEVNEIIKSGKFKGESFPYPLSFAPKNAEEALNDIKSGDRIDLMLDEKVVGHIDFKSQFKNNKNFSDIFSPNTCSLEDMGTTCISGKIEIYNSQIEKIKENFQQIKNNLNAQKITAIVSSFDPLHRAHERMFRWTIDKADLVVIFLVESFDVNGFEFELKEAYLKKFIQNYLPPDRIFIFPLKNINIFHAHLNPGLESIIAKSLGCTKLVVGQNHTGLGMFYDDNQPKTILDDFSKDYGIEVIVLPEFVFCDQCRMIVSTRSCPHGCHHHLHYNSQSLKDLLRAGIIPPAIFIRKEVSSVILTSLFPNRLKNMQKIYNELFPTDGILEYKNDEEFYQKLLEIHQMSYMV | not soluble
7 | MKSAYIFFNPKSGKDEQALAKEVKSYLIEHDFQDDYVRIITPSSVEEAVALAKKASEDHIDLVIPLGGDGTINKICGGVYAGGAYPTIGLVPAGTVNNFSKALNIPQERNLALENLLNGHVKSVDICKVNDDY | not soluble
8 | MKSEEAYSILDIVSESEGQGVVLTRSGSICVSFELREPECYSLTPEDIDRRDGMFREAFKFLPDGTYVHKQDVFLKERYCPDIAGGSFLDRADARHFRGRLYVSHTCVMHFVLSGLKSLEKAYISSPLSYKENLHKEDLARLDEFLEGVDNAVGIIRSMRDTEIAPMSGQEMRDFTAGYTTLFDAPGAVVDIHADTELRTGKKRARCFAVCDEIFLPDGSLDSCVRDDSLPPAGSLLYHPMLERLGMYLPYNHIVNQVVFFEGNGRLRERIARNIDIYGSNSGMSRSIKVQYQKLDELQQEILEENETLVRSFFSVCVFDESEAELEKADKKIRETLNLARLGYYIPGYENLAAVHFACVPGQIHLMPRKYLFLTTLPIALCFFLQCGSFRNDSEGIYVHDRMYQVPLRKDIWDAGKKRVNARNGMVIAGTGGGKSAFTLNLTQQLIEQDYTVVVVEFGKSFSQLCRLYPDISLHVDYDGRTALGINPFDLQGEELDNGSIEMLSGVVQKYWRHMFTKDESEKEVALTRFIQDYYENVREGHNFESFYNHVTEHYPEILARKHIPKDYFSLESFSLNCGEFLPGRRYENVCKDTGTDFSGKRFIVFELTQIKQDRFLSNLVMGMIFTVIQKKLLSDRRKRGVLIFDEYGETAQMVDTATGTGIHSSVAFCYQKIRKENGAVYTIIQNPDQLPENEHTKNIIANTDMLFVLPTKEVIYQSVIDRFRLTHPGQIALMKSMRNNFSGQRPYSECFMRLGEHYATVTRLEFSREKFLAFQTEGEIWSDLEEKNRRMSMEDAIEEYIREHQ | not soluble
9 | MKSEILQQIKQYETIILHRHVRPDPDAYGSQMGLAEIIRASFPEKKVYSVGNDEVSLQFLGAVDEIADEVYKDALVIVCDTANQERVSDVRFSSGQKLIKIDHHPNDDAYGDLLWVDTTASSCSEMIVAFWETFSDELILNETAARLLYAGIVGDTGRFLYPSTTEETLRLSAHLVTFPFDRPALYRELYELPKNTVKLSGYILQNFVMDENGAATVYLSDTLLREFEVDPRDASALVSCIENVEGIKAWIMFIQEGPVFRARLRSKGPVINELAKEYGGGGHPLASGATLHNEEEIKEMTVKLARICAAKLEHHHHHH | soluble
10 | MKSIPGDIPQYLLIKAQLQARIQSGALKSGDKLPSERELCAIFNTTRITIRESLAQLESSGLIWRADRRGWFVTPERLWLDPTQNTNFHKLCREQGREPKTALLSGVLTTVPVEVMEPLQLQPFDQIYLLTRLRYADGRAVCYCENHCLPARVPELLQYDLNGSLTEVYESHYNLVYTSMHLSFYPTAMPAQAAQALGVMEGRPALLLRRLNYDQHGRVLDLDIEYWRHDSLRIEVDTH | not soluble
11 | MKSLTVIILYSEREQILEESIQSIWKLNLLEIIILVPNDRSNLYEIAKKHKCHIVLMGKYSTYYDGYEASVKAAKGDVLLFVDSNFLLSTNEMQRFIEPIVTNQADVVLNKIDKLIEIGKCPNMDIVWRKMLNEILSRPDLKSNSILSLPYALTKEVVENIGFNYMEDIVLSHMKIVNQGWRINDQYAINTLSKDETIEEGGYLIKKELSKNEKEKVERYLRGIAKWIEKKGRRVGFTDAGKRRDIVQKLGECKRYPSYHQGWGMHSSIYDGKQLSVIIPVQNEEETIEQVILEARKIEPLEIIVVVNGSTDQTANIAKRLGVTIIEYNERLGHNVGRAIGALEATGDILLFIDGDFSVSGSNLHHFTKAVSAGVDIALNDLNPMLHPPFYVVDVVKYMLNLAYNRPELSNGSLVAIPHAMSRSCLDAIGWESLLCPSLAQVKAILQGYRVECVHYVDVVKPNRIRLMENVSHNGHPPAVLRIIGDHVEALSYLIEQLEMDGKGDLEHHHHHH | not soluble

Source: the DeepSol protein solubility set
